Reference: paper PMC8488656

These substances were tested against colicin E7 (ColE7) (UniProt Q47112) (assay: ELISA).
Sequence of UniProt Q47112 (Q47112 whole entry): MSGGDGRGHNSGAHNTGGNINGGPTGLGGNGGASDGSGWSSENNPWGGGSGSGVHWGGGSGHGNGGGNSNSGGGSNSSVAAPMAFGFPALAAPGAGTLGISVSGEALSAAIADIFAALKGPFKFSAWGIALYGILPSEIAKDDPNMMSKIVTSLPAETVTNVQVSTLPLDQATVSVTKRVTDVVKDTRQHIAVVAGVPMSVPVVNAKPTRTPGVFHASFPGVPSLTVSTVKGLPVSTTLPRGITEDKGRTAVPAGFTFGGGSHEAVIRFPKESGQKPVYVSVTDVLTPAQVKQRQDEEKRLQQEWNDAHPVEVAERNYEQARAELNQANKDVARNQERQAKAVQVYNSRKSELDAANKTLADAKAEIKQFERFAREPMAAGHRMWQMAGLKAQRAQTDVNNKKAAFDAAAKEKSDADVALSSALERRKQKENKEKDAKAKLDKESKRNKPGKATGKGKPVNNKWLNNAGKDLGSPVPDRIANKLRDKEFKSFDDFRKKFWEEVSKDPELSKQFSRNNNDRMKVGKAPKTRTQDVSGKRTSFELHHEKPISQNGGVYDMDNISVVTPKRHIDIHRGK
With “YebF-Im7^N31, glycosylated (from UniProt Q03708 1-87) (natural protein)” the agly/ai (binding activity, glycosylated over aglycosylated variant) was 0.55. “YebF-Im7^N30, glycosylated (from UniProt Q03708 1-87) (natural protein)” gave an agly/ai (binding activity, glycosylated over aglycosylated variant) of 1.36. For “YebF-Im7^N58, glycosylated (from UniProt Q03708 1-87) (natural protein)”, the agly/ai (binding activity, glycosylated over aglycosylated variant) was 3.44. “YebF-Im7^N49, glycosylated (from UniProt Q03708 1-87) (natural protein)” was tested, and the agly/ai (binding activity, glycosylated over aglycosylated variant) was 1.91.
